Reference: patent publication US20210292396A1

Experiments:
Test in all cases: cell-based or functional assay
[1] = target: Env of HIV isolate 6631.v3.c10 (clade C) (HIV)
[2] = target: HIV Env of isolate 191821.E6.1 (HIV)
[3] = target: HIV Env of isolate ZM215.8 (HIV)
[4] = target: Env of HIV isolate 242-14 (clade AG) (HIV)
[5] = target: Env of HIV isolate 0815.v3.c3 (clade ACD) (HIV)
[6] = target: HIV Env of isolate ZA012.29 (HIV)
[7] = target: HIV Env of isolate CNE19 (HIV)
[8] = target: Env of HIV isolate Q769.d22 (clade A) (HIV)
[9] = target: HIV Env of isolate ZM249.1 (HIV)
[10] = target: Env of HIV isolate 6101.10 (clade B) (HIV)
[11] = target: HIV Env of isolate 231965.c01 (HIV)
[12] = target: HIV Env of isolate X2088.c9 (HIV)
[13] = target: Env of HIV isolate 269-12 (clade AG) (HIV)
[14] = target: Env of HIV isolate CNE57 (clade B) (HIV)
[15] = target: Env of HIV isolate ZM55.28a (clade C) (HIV)
[16] = target: Env of HIV isolate DU422.01 (clade C) (HIV)
[17] = target: Env of HIV isolate C2101.c1 (clade AE) (HIV)
[18] = target: Env of HIV isolate T33-7 (clade AG) (HIV)
[19] = target: Env of HIV isolate CNE4 (clade B) (HIV)
[20] = target: Env of HIV isolate MI369.A5 (clade A) (HIV)
[21] = target: Env of HIV isolate P0402.c2.11 (clade G) (HIV)
[22] = target: Env of HIV isolate ADA.DG (clade B) (HIV)
[23] = target: Env of HIV isolate C4118.09 (clade AE) (HIV)
[24] = target: Env of HIV isolate 3326.v4.c3 (clade CD) (HIV)
[25] = target: Env of HIV isolate Q259.17 (clade A) (HIV)
[26] = target: HIV Env of isolate P1981.C5.3 (HIV)
[27] = target: Env of HIV isolate 25711-2.4 (clade C) (HIV)
[28] = target: Env of HIV isolate X2278.C2.B6 (clade B) (HIV)
[29] = target: Env of HIV isolate HXB2.DG (clade B) (HIV)
[30] = target: Env of HIV isolate ZM215.8 (clade C) (HIV)
[31] = target: Env of HIV isolate ZM249.1 (clade C) (HIV)
[32] = target: Env of HIV isolate HO86.8 (clade B) (HIV)
[33] = target: Env of HIV isolate Q23.17 (clade A) (HIV)
[34] = target: HIV Env of isolate ZM135.10a (HIV)
[35] = target: Env of HIV isolate CH119.10 (clade BC) (HIV)
[36] = target: HIV Env of isolate CAP45.G3 (HIV)
[37] = target: HIV Env of isolate CH117.4 (HIV)
[38] = target: Env of HIV isolate 3637.v5.c3 (clade C) (HIV)
[39] = target: Env of HIV isolate 3988.25 (clade B) (HIV)
[40] = target: Env of HIV isolate AC10.29 (clade B) (HIV)
[41] = target: Env of HIV isolate R1166.C1 (clade AE) (HIV)
[42] = target: HIV Env of isolate CH070.1 (HIV)
[43] = target: 208-member cross-clade virus panel

B1: ePGT121.15 (ePGT121.15.H6 VH and ePGT121.15.L1 VL) (antibody, V domains shown)
VH: QMQLQESGPGLVKPGETLSLTCSVSGASISSSYWSWLRETPGKGLEWIGYTHHSGDTNYAPSLKSRVHLGLHPSKNQVSLSLTSVTAADTAVYYCARTLHGRRIYGVVAFNEFFTYFYWEVWGKGTQVTVSS
VL: SDISVAPGETVRISCGGESIGSRAVQWYQHRAGQAPKLIIYNNQDRPPGIPERFSGSPDIDFGTTATLTITNVEAGDEATYYCHIWDSRRPTNWVFGGGTTLTVL
IC50, pseudovirus neutralization [1]: 0.015 mg/L
IC80, pseudovirus neutralization [2]: 3 mg/L
IC80, pseudovirus neutralization [3]: 0.047 mg/L
IC50, pseudovirus neutralization [4]: 42.8 mg/L
IC50, pseudovirus neutralization [5]: 0.002 mg/L
IC80, pseudovirus neutralization [6]: 0.012 mg/L
IC80, pseudovirus neutralization [7]: 0.03 mg/L
IC50, pseudovirus neutralization [8]: > 50 mg/L
IC80, pseudovirus neutralization [9]: 1.01 mg/L
IC50, pseudovirus neutralization [10]: 0.002 mg/L
IC80, pseudovirus neutralization [11]: > 50 mg/L
IC80, pseudovirus neutralization [12]: 0.01 mg/L
IC50, pseudovirus neutralization [13]: 0.011 mg/L
IC50, pseudovirus neutralization [14]: 0.004 mg/L
IC50, pseudovirus neutralization [15]: 0.009 mg/L
IC50, pseudovirus neutralization [16]: 0.01 mg/L
IC50, pseudovirus neutralization [17]: > 50 mg/L
IC50, pseudovirus neutralization [18]: > 50 mg/L
IC50, pseudovirus neutralization [19]: 0.004 mg/L
IC50, pseudovirus neutralization [20]: 0.004 mg/L
IC50, pseudovirus neutralization [21]: 0.004 mg/L
IC50, pseudovirus neutralization [22]: 0.005 mg/L
IC50, pseudovirus neutralization [23]: > 50 mg/L
IC50, pseudovirus neutralization [24]: 0.362 mg/L
IC50, pseudovirus neutralization [25]: > 50 mg/L
IC80, pseudovirus neutralization [26]: 0.005 mg/L
IC50, pseudovirus neutralization [27]: 0.004 mg/L
IC50, pseudovirus neutralization [28]: 0.002 mg/L
IC50, pseudovirus neutralization [29]: 0.011 mg/L
IC50, pseudovirus neutralization [30]: 0.017 mg/L
IC50, pseudovirus neutralization [31]: 0.249 mg/L
IC50, pseudovirus neutralization [32]: > 50 mg/L
IC50, pseudovirus neutralization [33]: 0.003 mg/L
IC80, pseudovirus neutralization [34]: 0.508 mg/L
IC50, pseudovirus neutralization [35]: 0.005 mg/L
IC80, pseudovirus neutralization [36]: 24.1 mg/L
IC80, pseudovirus neutralization [37]: > 50 mg/L
IC50, pseudovirus neutralization [38]: > 50 mg/L
IC50, pseudovirus neutralization [39]: 0.004 mg/L
IC50, pseudovirus neutralization [40]: 0.002 mg/L
IC50, pseudovirus neutralization [41]: > 50 mg/L
IC80, pseudovirus neutralization [42]: 0.004 mg/L
% vs Neutralized, IC50 < 0.01 ug/ml [43]: 49%
% vs Neutralized, IC50 < 0.1 ug/ml [43]: 63%
% vs Neutralized, IC50 < 1.0 ug/ml [43]: 70%
% vs Neutralized, IC50 < 10 ug/ml [43]: 75%
% vs Neutralized, IC50 < 50 ug/ml [43]: 77%
% vs Neutralized, IC80 < 0.01 ug/ml [43]: 26.9%
% vs Neutralized, IC80 < 0.1 ug/ml [43]: 56.2%
% vs Neutralized, IC80 < 1.0 ug/ml [43]: 63.5%
% vs Neutralized, IC80 < 10 ug/ml [43]: 70.2%
% vs Neutralized, IC80 < 50 ug/ml [43]: 72.6%
Geometric Mean (IC50) [43]: 0.0148 mg/L
Geometric Mean IC80 [43]: 0.0351 mg/L
Median IC50 [43]: 0.0055 mg/L
Median IC80 [43]: 0.015 mg/L
Total VS Neutralized, IC50 < 0.01 ug/ml (viruses of 208) [43]: 101
Total VS Neutralized, IC50 < 0.1 ug/ml (viruses of 208) [43]: 130
Total VS Neutralized, IC50 < 1.0 ug/ml (viruses of 208) [43]: 145
Total VS Neutralized, IC50 < 10 ug/ml (viruses of 208) [43]: 156
Total VS Neutralized, IC50 < 50 ug/ml (viruses of 208) [43]: 160
Total VS Neutralized, IC80 < 0.01 ug/ml (viruses of 208) [43]: 56
Total VS Neutralized, IC80 < 0.1 ug/ml (viruses of 208) [43]: 117
Total VS Neutralized, IC80 < 1.0 ug/ml (viruses of 208) [43]: 132
Total VS Neutralized, IC80 < 10 ug/ml (viruses of 208) [43]: 146
Total VS Neutralized, IC80 < 50 ug/ml (viruses of 208) [43]: 151
